According to IntAct's records for PubMed 26555173:

B1: Sterol regulatory element-binding protein cleavage-activating protein (Cricetulus griseus (Chinese hamster)), P97260 (parent)
chain: MTLTERLREKISQAFYNHGLLCASYPIPIILFTGLCILACCYPLLKLPLPGTGPVEFSTPVKDYSPPPVDSDHKQGEPSEQPEWYVGAPVAYIQQIFVKSSVSPWHKNLLAVDVFRLPLSRAFQLVEEIRNHVLRDSSGTKSLEEVCLQVTDLLPGLRKLRNLLPEHGCLLLSPGNFWQNDWERFHADPDIIGTIHQHEPKTLQTSATLKDLLFGVPGKYSGVSLYTRKRTVSYTITLVFQRYHAKFLSSLRARLMLLHPSPNCSLRAENLVHVHFKEEIGIAELIPLVTTYIILFAYIYFSTRKIDMVKSKWGLALAAVVTVLSSLLMSVGLCTLFGLTPTLNGGEIFPYLVVVIGLENVLVLTKSVVSTPVDLEVKLRIAQGLSSESWSIMKNVATELGIILIGYFTLVPAIQEFCLFAVVGLVSDFFLQMFFFTTVLSIDIRRMELADLNKRLPPESCLPSAKPVGRPARYERQLAVRPAMPHTITLQPSSFRNLRLPKRLRVIYFLARTRLAQRLIMAGTVVWIGILVYTDPAGLRTYLAAQVTEQSPLGEGSLGPMPVPSGVLPASRPDPAFSIFPPDAPKLPENQTVPGELPEHAAPAEGVHDSRAPEVTWGPEDEELWRRLSFRHWPTLFNYYNITLAKRYISLLPVIPVTLRLNPQEALEGRQPQDGRSAWAPPESLPAGLWEAGPKGPGGTQAHGDITLYKVAALGLAAGIVLVLLLLCLYRVLCPRNYGQPGGGAGRRRRGELPCDDYGYAPPETEIVPLVLRGHLMDIECLASDGMLLVSCCLAGQVCVWDAQTGDCLTRIPRPGSRRDSCGGGAFETQENWERLSDGGKTSPEEPGESPPLRHRPRGPPQPALFGDQPDLTCLIDTNFSVQLPPEPTQPEPRHRAGCGRARDSGYDFSRLVQRVYQEEGLAAVRMPALRPPSPGSPLPQASQEDGAAPEKGSPPLAWAPSTAGSIWSLELQGNLIVVGRSSGRLEVWDAIEGVLCCSNDEVSSGITALVFLDRRIVAARLNGSLDFFSLETHTSLSPLQFRGTPGRGSSPSSSVYSSSNTVACHLTHTVPCAHQKPITALRAAAGRLVTGSQDHTLRVFRLEDSCCLFTLQGHSGAITTVYIDQTMVLASGGQDGAICLWDVLTGSRVSHTFAHRGDVTSLTCTTSCVISSGLDDLINIWDRSTGIKLYSIQQDLGCGASLGVISDNLLVTGGQGCVSFWDLNYGDLLQTVYLGKNSEAQPARQILVLDNAAIVCNFGSELSLVYVPSVLEKLD
partner: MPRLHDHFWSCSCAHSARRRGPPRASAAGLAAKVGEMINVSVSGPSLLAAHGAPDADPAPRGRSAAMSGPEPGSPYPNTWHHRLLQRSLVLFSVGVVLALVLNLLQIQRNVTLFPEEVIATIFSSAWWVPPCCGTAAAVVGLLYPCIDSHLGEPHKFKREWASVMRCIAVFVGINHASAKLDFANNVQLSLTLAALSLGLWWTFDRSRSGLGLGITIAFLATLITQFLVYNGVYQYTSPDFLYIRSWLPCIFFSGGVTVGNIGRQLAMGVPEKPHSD

Variants of: B1
Settings: with insi1_human INSIG1, O15503

Variant	effect of a mutation on the interaction
N263E;N590E;N641E	increasing interaction strength
